{"source": "patent US9890400B2", "about": "“Method of production of 2,4-dihydroxybutyric acid” (ADISSEO FRANCE S.A.S., priority 2012, dated 2018)", "key": {"[1]": {"substrate": "O=CC(=O)O", "test": "Malyl-CoA lyase assay coupled to citrate synthase / DTNB", "assay_type": "biochemical, M. extorquens", "conditions": "other: pH 7.5, 37° C., 1 mM acetyl-CoA", "source_text": "Construction of plasmids containing wild-type genes coding for malyl-CoA lyase: The DNA sequences of the mcl genes coding for malyl-CoA lyase in M. extorquens (Arps et al., 1993) and Rhodobacter capsulatus (Meister et al., 2005) were optimized for the expression in Escherichia coli using the GENEius software (Eurofins). The optimized sequences were synthesized by Eurofins MWG OPERON® adding NheI and EcoRI restriction sites upstream of the start codon and downstream of the stop codon of mcl, respectively, which allowed direct cloning of the synthesized DNA fragments into the pET28a+ vector (Novagen) using T4 DNA ligase (Biolabs). […]\nMalyl-CoA lyase activity was assayed using a method adapted from (Meister et al., 2005). Malyl-CoA synthesis by malyl-CoA lyase was coupled to the citrate synthase-catalyzed release of coenzyme A which was monitored by its spontaneous reaction with DTNB. […]\nThe reaction mixture according to Assay 1 contained 50 mM MOPS/KOH (pH 7.5), 0.25 mM DTNB, 5 mM MgCl2, 1 mM acetyl-CoA, 20 U/mL citrate synthetase (all products from Sigma), and appropriate amounts of purified malyl-CoA lyase or cell extract. […] The reactions were followed by the characteristic absorption of DNTB at 412 nm (εDNTB+CoA=13.6 mM^−1 cm^−1) in a microplate reader (BioRad 680XR)."}, "[2]": {"substrate": "O=CCCC(=O)O", "test": "purified protein, by the assay type", "conditions": "other: oxidative sense, 1 mM NADP, 0.5 mM coenzyme A, pH 9, 37° C., pH 9.0"}, "[3]": {"substrate": "CC(C)(COP(=O)(O)OP(=O)(O)OC[C@H]1O[C@@H](n2cnc3c(N)ncnc32)[C@H](O)[C@@H]1OP(=O)(O)O)[C@@H](O)C(=O)NCCC(=O)NCCSC(=O)CCC(=O)O", "test": "purified protein, by the assay type", "conditions": "other: reductive sense, succinyl-CoA added directly, NADPH, pH 7.5, 37° C., pH 7.5"}, "[4]": {"substrate": "O=CC[C@H](O)C(=O)O", "test": "purified protein, by the assay type", "assay_type": "biochemical, Sulfolobus tokodaii", "conditions": "other: oxidative sense, 1 mM NADP, 0.5 mM coenzyme A, pH 9, 37° C.", "method": "NCBI references of the utilized mcr and sucD protein sequences, and the references for the corresponding natural and synthetic DNA sequences are listed in Table 2.\nTo purify St-Mcr, frozen cell pellets of expression cultures were resuspended in 0.5 mL of breakage buffer (50 mM Hepes, 300 mM NaCl, pH 7.5) and broken open by four successive rounds of sonication (sonication interval: 20 sec, power output: 30%, sonicator: Bioblock Scientific, VibraCell™ 72437). Cell debris were removed by centrifuging the crude extracts for 15 min at 4° C. at 13000×g and retaining the clear supernatant. Native proteins of E. coli were removed by heat precipitation at 85° C. during 30 min followed by centrifugation at 13000×g. […]\nAssay 1 (Reaction Scheme): glyoxylate+acetyl-CoA→malyl-CoA+acetate Malyl-CoA lyase: (L)-Malyl-CoA+NADPH→(L)-Malate semialdehyde+Coenzyme A+NADP Malyl-CoA reductase: Assay 2 (Reaction Scheme): (L)-Malate semialdehyde+Coenzyme A+NADP→(L)-Malyl-CoA+NADPH The reaction mixture according to Assay 1 contained 50 mM MOPS/KOH (pH 7.5), 10 mM glyoxylate, 4 mM acetyl-CoA, 5 mM MgCl2, 0.25 mM NADPH (all products from Sigma), 5 U/mL of malyl-CoA lyase, and appropriate amounts of purified malyl-CoA reductase or cell extract. […] The reactions were followed by the characteristic absorption of NADPH at 340 nm (εNADPH=6.22 mM^−1 cm^−1) in a microplate reader (BioRad 680XR). […]"}, "[5]": {"substrate": "O=CC[C@H](O)C(=O)O", "test": "Malate semialdehyde reductase activity", "assay_type": "biochemical, Metallosphaera sedula", "conditions": "other: malate semialdehyde, NADH or NADPH, pH 7.5, 30° C., average of at least two independent experiments", "method": "(§1) Test for Malate Semialdehyde Reductase Activity: (L)-Malate semialdehyde+NAD(P)H→(L)-2,4-dihydroxybutyric acid+NAD(P) Reaction scheme:\n(§2) The assay mixture contained 200 mM Hepes (pH 7.5), 50 mM KCl, 5 mM MgCl2, 0.24 mM NADH or NADPH, and appropriate amounts of purified enzyme or cell extract. Reactions were started by adding 10 mM (L)-malate semialdehyde (malate semialdehyde was prepared freshly for each test, see Example 3). Enzymatic assays were carried out at 30° C. in 96-well flat bottomed microtiter plates in a final volume of 250 μL. The reactions were followed by the characteristic absorption of NAD(P)H at 340 nm (εNADPH=6.22 mM^−1 cm^−1) in a microplate reader (BioRad 680XR).\nSite-directed mutagenesis was carried out using the oligonucleotide pairs listed in Table 6 and the pET28-Mse-SSR plasmid as the template. Point mutations to change the amino acid sequences were introduced by PCR (Phusion 1U, HF buffer 20% (v/v), dNTPs 2.5 mM, direct and reverse primers 1 μM each, template plasmid 200 ng, water). When possible, plasmids created by PCR contained new restriction sites (introduced using silent mutations) in addition to the functional mutation to facilitate identification of mutated clones. The PCR products were digested by DpnI at 37° C. for 2×2 h to remove template DNA, and transformed into NEB DH5-α competent E. coli cells (NEB). The mutated plasmids were identified by restriction site analysis and verified to carry the desired mutations by DNA sequencing."}, "[6]": {"substrate": "O=CC[C@H](O)C(=O)O", "test": "Malate semialdehyde reductase activity", "assay_type": "biochemical, Metallosphaera sedula", "conditions": "other: malate semialdehyde, NADH or NADPH, pH 7.5, 30° C., average of at least two independent experiments", "method": "To identify a suitable 2,4 DHB dehydrogenase, beta-hydroxyacid dehydrogenases from different biological sources were tested for their ability to reduce malate semialdehyde. […] The genes YPR1, 4hbdh, yqhD, and Ms-SSR were amplified using primers listed in Table 5 and cloned into vector pET28 (restriction enzymes see Table 5) yielding plasmids pET28-Sce-YPR1, pET28-Pgi-4-hbdh, pET28-Eco-yqhd and pET28-Mse-SSR, respectively. The proteins were expressed and purified as described in Example 1.\nas §1, §2", "remark": "listed apart in the source"}}}
{"protein": "M. extorquens malyl-CoA lyase (Me-Mcl), wild type, SEQ ID No. 1 (Methylorubrum extorquens AM1) (protein, full length 324 aa) MSFTLIQQATPRLHRSELAVPGSNPTFMEKSAASKADVIFLDLEDAVAPDDKEQARKNIIQALNDLDWGNKTMMIRINGLDTHYMYRDVVDIVEACPRLDMILIPKVGVPADVYAIDVLTTQIEQAKKREKKIGFEVLIETALGMANVEAIATSSKRLEAMSFGVADYAASTRARSTVIGGVNADYSVLTDKDEAGNRQTHWQDPWLFAQNRMLVACRAYGLRPIDGPFGDFSDPDGYTSAARRCAALGFEGKWAIHPSQIDLANEVFTPSEAEVTKARRILEAMEEAAKAGRGAVSLDGRLIDIASIRMAEALIQKADAMGGK", "values": [{"measurement": "Km", "setting": "[1]", "result": 500, "unit": "µM"}, {"measurement": "Vmax", "setting": "[1]", "result": "36 μmol/(min mg prot)"}]}
{"protein": "Sulfolobus tokodaii malonyl-CoA reductase (St-Mcr), wild type, SEQ ID No. 7 (Sulfurisphaera tokodaii str. 7) (protein, full length 359 aa) MILMRRTLKAAILGATGLVGIEYVRMLSNHPYIKPAYLAGKGSVGKPYGEVVRWQTVGQVPKEIADMEIKPTDPKLMDDVDIIFSPLPQGAAGPVEEQFAKEGFPVISNSPDHRFDPDVPLLVPELNPHTISLIDEQRKRREWKGFIVTTPLCTAQGAAIPLGAIFKDYKMDGAFITTIQSLSGAGYPGIPSLDVVDNILPLGDGYDAKTIKEIFRILSEVKRNVDEPKLEDVSLAATTHRIATIHGHYEVLYVSFKEETAAEKVKETLENFRGEPQDLKLPTAPSKPIIVMNEDTRPQVYFDRWAGDIPGMSVVVGRLKQVNKRMIRLVSLIHNTVRGAAGGGILAAELLVEKGYIEK", "values": [{"measurement": "Km", "setting": "[2]", "result": 1150, "unit": "µM"}, {"measurement": "Vmax", "setting": "[2]", "result": 1.7, "unit": "µmol/min/mg"}, {"measurement": "Km", "setting": "[3]", "result": 200, "unit": "µM"}, {"measurement": "Vmax", "setting": "[3]", "result": "0.98 ± 0.17", "unit": "µmol/min/mg"}, {"measurement": "Km", "setting": "[4]", "result": 250, "unit": "µM"}, {"measurement": "Vmax", "setting": "[4]", "result": 0.1, "unit": "µmol/min/mg"}]}
{"protein": "Metallosphaera sedula succinic semialdehyde reductase (Ms-SSR) mutant H39R, SEQ ID No. 32 (Metallosphaera sedula DSM 5348; H39R) (protein) MKAAVLHTYKEPLSIEDVNISQPKAGEVKIKVKATGLCRSDVNVFEGKTPVPPPVVAGHEISGIVEEVGPGVTRVKPGDRVISAFIHPCGKCGNCVAGKENLCETFSQVRLKGVMPDGTSRLSKDGKEIRTFLGGGFAEYAIVGENALTRVPEDMDLEKVAVLGCAGLTGYGAISSSKIEPGDTVAVIGVGGVGLSTIQLLRASGAGRIIAVGTKKWKLDRAMELGATDVVNSKEIDPVKAIKEITGGGPQVVIEAGGNEDTIHMALDSVRIGGKVVLVGLPPATAMIPIRVASIVRGGIEVVGNYGGRPRVDMPKLLELVRQGRYDPSRLVTGRFRLEEINEAVKMLEEGEAIRSLIIP", "values": [{"measurement": "Km", "setting": "[5]", "result": 1000, "unit": "µM"}]}
{"protein": "Metallosphaera sedula succinic semialdehyde reductase (Ms-SSR) mutant N43H, SEQ ID No. 34 (Metallosphaera sedula DSM 5348; N43H) (protein) MKAAVLHTYKEPLSIEDVNISQPKAGEVKIKVKATGLCHSDVHVFEGKTPVPPPVVAGHEISGIVEEVGPGVTRVKPGDRVISAFIHPCGKCGNCVAGKENLCETFSQVRLKGVMPDGTSRLSKDGKEIRTFLGGGFAEYAIVGENALTRVPEDMDLEKVAVLGCAGLTGYGAISSSKIEPGDTVAVIGVGGVGLSTIQLLRASGAGRIIAVGTKKWKLDRAMELGATDVVNSKEIDPVKAIKEITGGGPQVVIEAGGNEDTIHMALDSVRIGGKVVLVGLPPATAMIPIRVASIVRGGIEVVGNYGGRPRVDMPKLLELVRQGRYDPSRLVTGRFRLEEINEAVKMLEEGEAIRSLIIP", "values": [{"measurement": "Km", "setting": "[5]", "result": 5000, "unit": "µM"}]}
{"protein": "Metallosphaera sedula succinic semialdehyde reductase (Ms-SSR) double mutant H39R N43H, SEQ ID No. 36 (Metallosphaera sedula DSM 5348; H39R/N43H) (protein) MKAAVLHTYKEPLSIEDVNISQPKAGEVKIKVKATGLCRSDVHVFEGKTPVPPPVVAGHEISGIVEEVGPGVTRVKPGDRVISAFIHPCGKCGNCVAGKENLCETFSQVRLKGVMPDGTSRLSKDGKEIRTFLGGGFAEYAIVGENALTRVPEDMDLEKVAVLGCAGLTGYGAISSSKIEPGDTVAVIGVGGVGLSTIQLLRASGAGRIIAVGTKKWKLDRAMELGATDVVNSKEIDPVKAIKEITGGGPQVVIEAGGNEDTIHMALDSVRIGGKVVLVGLPPATAMIPIRVASIVRGGIEVVGNYGGRPRVDMPKLLELVRQGRYDPSRLVTGRFRLEEINEAVKMLEEGEAIRSLIIP", "values": [{"measurement": "Km", "setting": "[5]", "result": 1000, "unit": "µM"}]}
{"protein": "Metallosphaera sedula succinic semialdehyde reductase (Ms-SSR), wild type, SEQ ID No. 16 (Metallosphaera sedula DSM 5348) (protein, full length 360 aa) MKAAVLHTYKEPLSIEDVNISQPKAGEVKIKVKATGLCHSDVNVFEGKTPVPPPVVAGHEISGIVEEVGPGVTRVKPGDRVISAFIHPCGKCGNCVAGKENLCETFSQVRLKGVMPDGTSRLSKDGKEIRTFLGGGFAEYAIVGENALTRVPEDMDLEKVAVLGCAGLTGYGAISSSKIEPGDTVAVIGVGGVGLSTIQLLRASGAGRIIAVGTKKWKLDRAMELGATDVVNSKEIDPVKAIKEITGGGPQVVIEAGGNEDTIHMALDSVRIGGKVVLVGLPPATAMIPIRVASIVRGGIEVVGNYGGRPRVDMPKLLELVRQGRYDPSRLVTGRFRLEEINEAVKMLEEGEAIRSLIIP", "values": [{"measurement": "Km", "setting": "[6]", "result": 4000, "unit": "µM"}]}
